Results taken from patent publication US20140031294A1.

Target: Concanavalin A (UniProt P02866)
Assay: ConA sepharose affinity chromatography, load and eluate by RP-HPLC

Analysis 1 Eluate Recovery % (w/w) (ConA binding material) | Analysis 2 Eluate Recovery % (w/w) (ConA binding material) | Substance
0.25 % (w/w) | 0.26 % (w/w) | recombinant transferrin (S32C, S415A, T613A) (from UniProt P02787 20-698) (ligand)
0.15 % (w/w) |  | recombinant transferrin (S32A, S415A, T613A) (from UniProt P02787 20-698) (ligand)
